Laboratory results published in the supplement of paper PMC10126150.
± gives the standard deviation of the averaged measurements.

tested on: ATP; assay: switch fluorescence ratio, 500 uM ATP over buffer (Cy3 cluster intensity, sum of 5 cycles each) (fold (ratio)); higher = stronger signal-on switching upon ATP binding; sequences stand for … in TCGTCGGCAGCGTCAGATGTGTATAAGAGACAGTTTTTTTTTTTTTTTTTTTTTTTTT…TC; details: aptamer strand: ATP DNA aptamer (quencher-CACCTGGGGGAGTATTGCGGAGGAAGG + anchor), 100 nM annealed; ATP concentration: 500 uM
Summary of the method: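 Imaging in selection buffer was followed by imaging after 15 min with 500 uM ATP at 22 °C, for Cy3-labelled switching-strand clusters annealed to 100 nM quencher-labelled ATP aptamer on a modified Illumina MiSeq flow-cell. Five of these buffer/ATP cycles ran, separated by NaOH stripping and re-annealing. The fluorescence ratio per cluster is summed target-cycle over summed buffer-cycle Cy3 intensity, averaged per switch-domain sequence; clusters outside 100-1000 RFU were removed.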
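Further: ATP exposure 15 min at 22 °C before imaging.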

Compared with CAGACCGTTT, CAGACGAGGC is higher in switch fluorescence ratio: 1.01 ± 0.018 for the first, 1.044 ± 0.0037 for the second.

Going from CAGACGGATT to CAGACGGTAC, the switch fluorescence ratio rises from 0.996 ± 0.0085 to 3.08 ± 0.089.

CAGAGAATTT and CAGAGATCAT are within error of each other in switch fluorescence ratio: 1.004 ± 0.0046 for the first, 0.993 ± 0.019 for the second.

CAGAGGAGGG and CAGAGGATCA are within error of each other in switch fluorescence ratio: 0.9747 ± 0.008 for the first, 0.996 ± 0.015 for the second.

CAGAGGCCCG and CAGAGGGGTA are within error of each other in switch fluorescence ratio: 1.02 ± 0.032 for the first, 1.01 ± 0.03 for the second.

CAGAGGTATG and CAGAGTCGGG are within error of each other in switch fluorescence ratio: 1.01 ± 0.028 for the first, 0.9963 ± 0.009 for the second.

CAGAGTTTCT and CAGAGTTTTA are the same in switch fluorescence ratio: 1.02 ± 0.021 for the first, 1.02 ± 0.015 for the second.

Compared with CAGATAAGGA, CAGATGCAGA is higher in switch fluorescence ratio: 1.01 ± 0.026 for the first, 1.065 ± 0.0071 for the second.

Going from CAGATGGGGA to CAGATGTCAA, the switch fluorescence ratio falls from 1.012 ± 0.0036 to 0.993 ± 0.013.

CAGATTTGGG and CAGCAACGTA are within error of each other in switch fluorescence ratio: 1.01 ± 0.035 for the first, 1.05 ± 0.025 for the second.

First: CAGCAATTAT
Second: CAGCAGGGGG
The switch fluorescence ratio of the first is higher: 2.95 ± 0.28 for the first, 1.07 ± 0.068 for the second.

Going from CAGCATATAT to CAGCCCGGTC, the switch fluorescence ratio falls from 2.32 ± 0.053 to 1.06 ± 0.048.

CAGCGAACGG and CAGCGAAGAG are within error of each other in switch fluorescence ratio: 1.02 ± 0.026 for the first, 1.01 ± 0.0025 for the second.

CAGCGGCTTT and CAGCGGGATT are within error of each other in switch fluorescence ratio: 0.977 ± 0.032 for the first, 0.995 ± 0.036 for the second.

CAGCGGGGCC and CAGCTAAATT are within error of each other in switch fluorescence ratio: 0.994 ± 0.011 for the first, 1.02 ± 0.047 for the second.

First: CAGCTCAGCC
Second: CAGCTGCATT
The switch fluorescence ratio of the first is lower: 1 ± 0.042 for the first, 1.305 ± 0.013 for the second.

CAGCTGGATG and CAGCTGGTAT are within error of each other in switch fluorescence ratio: 0.993 ± 0.029 for the first, 0.9992 ± 0.0011 for the second.

CAGCTGGTTT and CAGCTGTGGT are within error of each other in switch fluorescence ratio: 1.004 ± 0.0077 for the first, 0.985 ± 0.036 for the second.

CAGCTTATCG and CAGCTTGGGT are within error of each other in switch fluorescence ratio: 0.995 ± 0.014 for the first, 0.999 ± 0.04 for the second.

CAGCTTTGAG and CAGGAAAATG are within error of each other in switch fluorescence ratio: 1.01 ± 0.037 for the first, 0.994 ± 0.041 for the second.

Compared with CAGGAATAGC, CAGGAATAGG is lower in switch fluorescence ratio: 1.25 ± 0.044 for the first, 1.03 ± 0.012 for the second.

CAGGACAGCT and CAGGACCCGA are within error of each other in switch fluorescence ratio: 1.02 ± 0.02 for the first, 0.99 ± 0.025 for the second.

CAGGACCCGT and CAGGACTCCG are within error of each other in switch fluorescence ratio: 0.9965 ± 0.0019 for the first, 0.98 ± 0.046 for the second.

CAGGAGGCGG and CAGGAGGGCT are within error of each other in switch fluorescence ratio: 1.02 ± 0.037 for the first, 0.993 ± 0.031 for the second.

First: CAGGAGTCGG
Second: CAGGATCATC
The switch fluorescence ratio of the first is higher: 1.01 ± 0.014 for the first, 0.9884 ± 0.0035 for the second.

CAGGATGCAT and CAGGATGCCC are within error of each other in switch fluorescence ratio: 1.01 ± 0.02 for the first, 0.9871 ± 0.0066 for the second.

CAGGATGTAC and CAGGATTCTG are within error of each other in switch fluorescence ratio: 1.05 ± 0.063 for the first, 1.03 ± 0.059 for the second.

First: CAGGCAAGCT
Second: CAGGCAGGAC
The switch fluorescence ratio of the first is lower: 1.061 ± 0.0071 for the first, 2.24 ± 0.17 for the second.

CAGGCATGGT and CAGGCCATGG are within error of each other in switch fluorescence ratio: 0.9891 ± 0.002 for the first, 1.03 ± 0.094 for the second.

CAGGGAAGGT and CAGGGAATAA are within error of each other in switch fluorescence ratio: 1.01 ± 0.033 for the first, 0.997 ± 0.011 for the second.

CAGGGAATGT and CAGGGAATTG are within error of each other in switch fluorescence ratio: 0.9984 ± 0.0077 for the first, 0.989 ± 0.075 for the second.

CAGGGACGGT and CAGGGATTTG are within error of each other in switch fluorescence ratio: 0.975 ± 0.058 for the first, 0.9599 ± 0.0044 for the second.

First: CAGGGCGACA
Second: CAGGGCGCCT
The switch fluorescence ratio of the first is lower: 0.9924 ± 0.0012 for the first, 1.012 ± 0.002 for the second.

CAGGGCGTAT and CAGGGCTTGA are within error of each other in switch fluorescence ratio: 1 ± 0.026 for the first, 1.03 ± 0.093 for the second.

CAGGGGCTGT and CAGGGGGAAC are within error of each other in switch fluorescence ratio: 0.997 ± 0.038 for the first, 1.04 ± 0.061 for the second.

CAGGGGGGAT and CAGGGGGGTC are within error of each other in switch fluorescence ratio: 1.04 ± 0.067 for the first, 1.022 ± 0.0065 for the second.

CAGGGGGTAG and CAGGGGGTAT are within error of each other in switch fluorescence ratio: 1.01 ± 0.027 for the first, 0.997 ± 0.026 for the second.

CAGGGTGCCA and CAGGTAAAAG are within error of each other in switch fluorescence ratio: 1.003 ± 0.0003 for the first, 1.01 ± 0.035 for the second.

CAGGTACATT and CAGGTAGATG are within error of each other in switch fluorescence ratio: 1.02 ± 0.049 for the first, 0.9959 ± 0.0086 for the second.

CAGGTAGGGT and CAGGTAGGTA are within error of each other in switch fluorescence ratio: 1.01 ± 0.052 for the first, 0.977 ± 0.014 for the second.

CAGGTAGTCT and CAGGTATATG are within error of each other in switch fluorescence ratio: 0.997 ± 0.024 for the first, 1.01 ± 0.017 for the second.

CAGGTATGAA and CAGGTCGACT are within error of each other in switch fluorescence ratio: 1 ± 0.02 for the first, 0.972 ± 0.03 for the second.

Going from CAGGTGGTTG to CAGGTGTATG, the switch fluorescence ratio rises from 1.01 ± 0.035 to 1.273 ± 0.0042.

Compared with CAGGTGTGGG, CAGGTTCACC is lower in switch fluorescence ratio: 1.2 ± 0.1 for the first, 1.03 ± 0.012 for the second.

CAGGTTGTTC and CAGGTTTATA are within error of each other in switch fluorescence ratio: 1.005 ± 0.0011 for the first, 0.993 ± 0.022 for the second.

CAGGTTTGTT and CAGTAAAGGG are within error of each other in switch fluorescence ratio: 1.12 ± 0.17 for the first, 0.9703 ± 0.0059 for the second.

CAGTAGAGG and CAGTAGATGG are within error of each other in switch fluorescence ratio: 0.979 ± 0.019 for the first, 0.985 ± 0.024 for the second.

Compared with CAGTAGGCAA, CAGTAGGCGC is lower in switch fluorescence ratio: 2 ± 0.15 for the first, 1.01 ± 0.011 for the second.

CAGTAGGGAG and CAGTAGGGGG are within error of each other in switch fluorescence ratio: 0.987 ± 0.022 for the first, 0.977 ± 0.068 for the second.

CAGTAGTAGT and CAGTAGTCGC are within error of each other in switch fluorescence ratio: 1.02 ± 0.0097 for the first, 1.01 ± 0.03 for the second.
